The values below come from publication PMC13070007, “TRBC2-targeting antibody–drug conjugates for the treatment of T cell cancers” (Nature cancer, 2025).

For orientation: Kd means a measure of binding affinity in units of concentration. As a reminder, the koff is the first-order rate constant of dissociation.

Test [1] has as its target T1, TRBC1 protein (recombinant) (Homo sapiens, UniProt P01850).
T1 construct: T cell receptor beta constant 1 (TRBC1), recombinant protein bought from Acro Biosystems; The discussion calls it 'TRBC1 peptide'; see the vendor's data sheet for the catalogue number; also called recombinant TRBC1 protein; TRBC1 peptide; source: bought: Acro Biosystems, cat. no; TR1-H52H4
Put plainly: SPR; Biacore T200, 25 °C; antibodies captured on protein A/G immobilised on CM5 chips; TRBC1 or TRBC2 protein as analyte, threefold dilutions from 1,000 nM to 4.1 nM, multiple-cycle kinetics; PBS-P (20 mM phosphate pH 7.4, 137 mM NaCl, 2.7 mM KCl, 0.05% P20); 1:1 kinetics binding model. As to conditions: both partners purified. Background: In SPR one partner is held on a chip, and binding of the other changes the refractive index at the surface.

Test [2] addresses T2, TRBC2 protein (recombinant) (Homo sapiens, UniProt A0A5B9).
T2 construct: T cell receptor beta constant 2 (TRBC2), recombinant protein bought from Acro Biosystems; The discussion calls it 'TRBC2 peptide'; see the vendor's data sheet for the catalogue number; also called recombinant TRBC2 protein; TRBC2 peptide; source: bought: Acro Biosystems, cat. no; TR2-H52H3
Described as above. As to conditions: both partners purified.

The target in another test is T3, TRBC1^+ TCR on T cells (Homo sapiens, UniProt P01850).
T3 construct: variable part (TRBV-TRBD-TRBJ) of the beta chain, different in each cell line or T cell; T cell receptor beta constant 1 (TRBC1) as part of the alpha-beta TCR on the cell surface; On cells the beta chain stands in the whole TCR-CD3 complex; also called TRBC1^+ cells; source: endogenous on wild-type Jurkat and H9 cells; normal human T cells from PBMCs
Put plainly: flow cytometry on cells; T cell cancer cell lines stained with anti-TRBC2 antibodies with a mouse IgG2a Fc, then anti-mouse IgG-Alexa Fluor-647. As to conditions: one partner purified.

B1: YR3-A5 anti-TRBC2 antibody (antibody, V domains shown)
VH: QVQLVQSGAEVKKPGASVKVSCKASPRGFHGYHMHWVRQAPGQGLEWMGFINPYNDDIQSNERFRGRVTMTSDKSTTTAYMELSSLRSEDTAVYYCARGNGKWGDGAYRFFDFWGQGTLVTVSS
VL: DVVMTQSPLSLPVTPGEPASISCRSSQNLVHSNGRTYLQWYLQKPGQSPQLLIYRVSNRFPGVPDRFSGSGSGTDFTLKISRVEAEDVGVYFCSQSTHVPYTFGGGTKVEIK
notes: also called parent; source: transient transfection of CHO cells (ExpiCHO or CHO-S), purified (HisTrap column or Protein A magnetic beads; SEC); copies: 2 + 2
Consider B1, for which, in test [1], the binding result is “no binding”. Also, the Kd in test [2] worked out at 23 nM.

B2: JX1.1 anti-TRBC2 antibody (antibody, V domains shown)
VH: QVQLVQSGAEVKKPGASVKVSCKASPYGFHGYHMHWVRQAPGQGLEWMGFINPYNDDIQSNERFRGRVTMTSDKSTTTAYMELSSLRSEDTAVYYCARGNGKWGDGAYRFFDFWGQGTLVTVSS
VL: DVVMTQSPLSLPVTPGEPASISCRSSQNLKHRNGRTYLQWYLQKPGQSPQLLIYRVSNRFPGVPDRFSGSGSGTDFTLKISRVEAEDVGVYFCSQSTHVPYTFGGGTKVEIK
notes: human VH; murine IgG2a Fc region; human VL; Human variable light and heavy chains fused to a murine IgG2a Fc region; also called clone V30K, S32R, R27Y; source: ExpiCHO or CHO-S cells, purified (HisTrap column or Protein A magnetic beads; SEC); copies: 2 + 2
For B2, in test [1], the binding result was “no binding”. Besides, in test [2], the dissociation constant (Kd) amounted to 10 nM and the koff amounted to 0.0013 s⁻¹. For the same molecule, the binding result in the test with TRBC1^+ TCR on T cells was “no binding”.
